From patent publication US20250206802A1

What was measured:
[1] = target: αVβ6 headpiece (soluble, disulfide-linked: αv headpiece residues 1-594 with M400C and β6 headpiece residues 1-474 with I270C) (UniProt P06756); assay: fluorescence anisotropy; pH 7.0
Target sequence in this assay (P06756 other isoform, or with tags, fused parts or gaps M400C I270C, chain 1 of 2): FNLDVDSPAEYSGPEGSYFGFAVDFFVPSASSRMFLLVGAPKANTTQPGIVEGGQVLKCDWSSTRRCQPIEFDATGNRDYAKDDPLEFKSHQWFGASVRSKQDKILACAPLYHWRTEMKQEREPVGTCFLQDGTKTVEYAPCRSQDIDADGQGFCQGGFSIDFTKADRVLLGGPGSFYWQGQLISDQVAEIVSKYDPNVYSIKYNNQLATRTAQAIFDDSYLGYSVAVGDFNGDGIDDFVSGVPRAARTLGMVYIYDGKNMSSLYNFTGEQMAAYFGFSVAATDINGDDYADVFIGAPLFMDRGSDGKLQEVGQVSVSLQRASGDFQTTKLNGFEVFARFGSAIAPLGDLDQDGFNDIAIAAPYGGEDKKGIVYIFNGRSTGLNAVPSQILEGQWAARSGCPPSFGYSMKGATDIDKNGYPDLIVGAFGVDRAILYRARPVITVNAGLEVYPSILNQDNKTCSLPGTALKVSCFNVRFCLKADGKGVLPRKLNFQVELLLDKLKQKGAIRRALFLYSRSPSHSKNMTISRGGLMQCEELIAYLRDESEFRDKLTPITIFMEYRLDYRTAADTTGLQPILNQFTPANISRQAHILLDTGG
Target sequence in this assay (P18564 other isoform, or with tags, fused parts or gaps M400C I270C, chain 2 of 2, further chain): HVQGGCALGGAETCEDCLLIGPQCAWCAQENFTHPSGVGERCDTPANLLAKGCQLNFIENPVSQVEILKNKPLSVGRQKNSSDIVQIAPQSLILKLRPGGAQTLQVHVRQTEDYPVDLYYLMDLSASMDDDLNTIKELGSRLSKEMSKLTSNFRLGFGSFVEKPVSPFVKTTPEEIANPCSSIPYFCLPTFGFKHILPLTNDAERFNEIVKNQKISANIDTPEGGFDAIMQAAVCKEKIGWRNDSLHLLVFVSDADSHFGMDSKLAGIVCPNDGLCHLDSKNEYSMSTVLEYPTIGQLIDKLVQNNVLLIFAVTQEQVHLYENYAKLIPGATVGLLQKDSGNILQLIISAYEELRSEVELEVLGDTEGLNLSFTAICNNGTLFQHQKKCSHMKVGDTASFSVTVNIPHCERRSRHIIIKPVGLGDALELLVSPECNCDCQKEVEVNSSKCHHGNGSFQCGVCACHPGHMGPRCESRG

[2] = target: αVβ6 headpiece (soluble, disulfide-linked: αv headpiece residues 1-594 with M400C and β6 headpiece residues 1-474 with I270C) (UniProt P06756); assay: fluorescence anisotropy; pH 5.0
Target sequence in this assay (P06756 other isoform, or with tags, fused parts or gaps M400C I270C, chain 1 of 2): as the sequence (P06756 other isoform, or with tags, fused parts or gaps M400C I270C, chain 1 of 2) above
Target sequence in this assay (P18564 other isoform, or with tags, fused parts or gaps M400C I270C, chain 2 of 2, further chain): as the sequence (P18564 other isoform, or with tags, fused parts or gaps M400C I270C, chain 2 of 2, further chain) above

[3] = target: αVβ6 headpiece (soluble, disulfide-linked: αv headpiece residues 1-594 with M400C and β6 headpiece residues 1-474 with I270C) (UniProt P06756); assay: fluorescence anisotropy; pH 6.0
Target sequence in this assay (P06756 other isoform, or with tags, fused parts or gaps M400C I270C, chain 1 of 2): as the sequence (P06756 other isoform, or with tags, fused parts or gaps M400C I270C, chain 1 of 2) above
Target sequence in this assay (P18564 other isoform, or with tags, fused parts or gaps M400C I270C, chain 2 of 2, further chain): as the sequence (P18564 other isoform, or with tags, fused parts or gaps M400C I270C, chain 2 of 2, further chain) above

[4] = target: αVβ6 headpiece (soluble, disulfide-linked: αv headpiece residues 1-594 with M400C and β6 headpiece residues 1-474 with I270C) (UniProt P06756); assay: fluorescence anisotropy; pH 8.0
Target sequence in this assay (P06756 other isoform, or with tags, fused parts or gaps M400C I270C, chain 1 of 2): as the sequence (P06756 other isoform, or with tags, fused parts or gaps M400C I270C, chain 1 of 2) above
Target sequence in this assay (P18564 other isoform, or with tags, fused parts or gaps M400C I270C, chain 2 of 2, further chain): as the sequence (P18564 other isoform, or with tags, fused parts or gaps M400C I270C, chain 2 of 2, further chain) above

[5] = target: αVβ6 headpiece (soluble, disulfide-linked: αv headpiece residues 1-594 with M400C and β6 headpiece residues 1-474 with I270C) (UniProt P06756); assay: fluorescence anisotropy; pH 9.0
Target sequence in this assay (P06756 other isoform, or with tags, fused parts or gaps M400C I270C, chain 1 of 2): as the sequence (P06756 other isoform, or with tags, fused parts or gaps M400C I270C, chain 1 of 2) above
Target sequence in this assay (P18564 other isoform, or with tags, fused parts or gaps M400C I270C, chain 2 of 2, further chain): as the sequence (P18564 other isoform, or with tags, fused parts or gaps M400C I270C, chain 2 of 2, further chain) above

[6] = target: αVβ3 headpiece (soluble, disulfide-linked: αv headpiece residues 1-594 with M400C and β3 headpiece residues 1-472 with Q267C) (UniProt P06756); assay: fluorescence anisotropy competition
Target sequence in this assay (P06756 other isoform, or with tags, fused parts or gaps M400C Q267C, chain 1 of 2): as the sequence (P06756 other isoform, or with tags, fused parts or gaps M400C I270C, chain 1 of 2) above
Target sequence in this assay (P05106 27-498 Q293C, chain 2 of 2, further chain): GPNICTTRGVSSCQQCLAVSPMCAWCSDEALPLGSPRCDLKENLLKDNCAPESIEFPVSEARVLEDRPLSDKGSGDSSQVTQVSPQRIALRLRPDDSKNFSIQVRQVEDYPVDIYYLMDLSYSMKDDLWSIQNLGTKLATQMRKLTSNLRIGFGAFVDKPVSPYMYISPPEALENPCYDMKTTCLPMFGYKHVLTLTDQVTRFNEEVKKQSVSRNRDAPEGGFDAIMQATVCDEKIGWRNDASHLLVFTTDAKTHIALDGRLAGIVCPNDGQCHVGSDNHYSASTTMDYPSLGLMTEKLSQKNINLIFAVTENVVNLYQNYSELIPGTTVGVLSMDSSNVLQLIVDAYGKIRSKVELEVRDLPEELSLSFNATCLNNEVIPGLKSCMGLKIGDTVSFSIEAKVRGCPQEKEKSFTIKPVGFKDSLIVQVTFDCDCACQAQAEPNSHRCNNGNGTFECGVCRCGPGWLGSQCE

[7] = target: αVβ6 headpiece (soluble, disulfide-linked: αv headpiece residues 1-594 with M400C and β6 headpiece residues 1-474 with I270C) (UniProt P06756); assay: competitive fluorescence anisotropy on αVβ6 headpiece
Target sequence in this assay (P06756 other isoform, or with tags, fused parts or gaps M400C I270C M400C I270C, chain 1 of 2): as the sequence (P06756 other isoform, or with tags, fused parts or gaps M400C I270C, chain 1 of 2) above
Target sequence in this assay (chain, as listed by the source M400C I270C M400C I270C, chain 2 of 2): as the sequence (P18564 other isoform, or with tags, fused parts or gaps M400C I270C, chain 2 of 2, further chain) above

[8] = target: αVβ6 headpiece (soluble, disulfide-linked: αv headpiece residues 1-594 with M400C and β6 headpiece residues 1-474 with I270C) (UniProt P06756); assay: fluorescence anisotropy, competition with FITC-GRGDLGRL on αVβ6 headpiece
Target sequence in this assay (P06756 other isoform, or with tags, fused parts or gaps M400C I270C M400C I270C, chain 1 of 2): as the sequence (P06756 other isoform, or with tags, fused parts or gaps M400C I270C, chain 1 of 2) above
Target sequence in this assay (chain, as listed by the source M400C I270C M400C I270C, chain 2 of 2): as the sequence (P18564 other isoform, or with tags, fused parts or gaps M400C I270C, chain 2 of 2, further chain) above

[9] = target: αVβ3 headpiece (soluble, disulfide-linked: αv headpiece residues 1-594 with M400C and β3 headpiece residues 1-472 with Q267C) (UniProt P06756); assay: fluorescence anisotropy, competition with FITC-GRGDLGRL on αVβ3 headpiece
Target sequence in this assay (P06756 other isoform, or with tags, fused parts or gaps M400C Q267C M400C Q267C, chain 1 of 2): as the sequence (P06756 other isoform, or with tags, fused parts or gaps M400C I270C, chain 1 of 2) above
Target sequence in this assay (chain, as listed by the source M400C Q267C M400C Q267C, chain 2 of 2): as the sequence (P05106 27-498 Q293C, chain 2 of 2, further chain) above

Molecule: FITC-GRGDLGRL (SEQ ID NO: 68), FITC-pro-TGF-β3 peptide
- Kd [1]: 212 nM
- Kd [2]: 3.81 µM
- Kd [3]: 2000 nM
- Kd [4]: 84.6 nM
- Kd [5]: 27.4 nM

Molecule: GRGDSP (SEQ ID NO: 72) peptide of fibronectin
- Kd [6]: 1600 nM

Molecule: HGRGDLGR [TGF-β3 undecapeptide truncated from the C-terminus until Leu-247 is removed]
- step-wise drop in affinity (fold, against the peptide one residue longer) [7]: 10 fold

Molecule: HGRGD [TGF-β3 undecapeptide truncated from the C-terminus until Leu-244 is removed]
- step-wise drop in affinity (fold, against the peptide one residue longer) [7]: 10 fold

Molecule: GRGDLGRLK [nonapeptide containing RGD from pro-TGF-β3, … (SEQ ID NO: 75)]
- Kd [8]: 8.5 nM
- fold lower affinity than for αVβ6 [9]: 1000 fold
